Key:
[1] = molecular target: T1, A2AR S47A variant with rho-1d4 tag (human, UniProt P29274 1-412, S47A); experiment: SPR; His6-Gαs (1 µM injected) captured on a high-capacity Ni-NTA chip; purified receptor injected at 296 (legend: 267), 445 or 667 nM for 3 min, dissociation 5 min; 20 °C, 25 µL/min; 50 mM Tris-HCl pH 8, 0.1% DDM, 0.1% CHAPS, 0.02% CHS; channel with denatured Gαs subtracted; 1-1 binding model, fits of three biological replicates averaged; conditions: both partners purified
T1 construct: adenosine A2A receptor, human, with S47A (Ballesteros-Weinstein 2.45) in the cholesterol consensus motif; source: S. cerevisiae BJ5464 (pITy4, galactose induced), purified (Rho-1d4 resin, eluted with Rho-1d4 peptide) in DDM/CHAPS/CHS
T1 sequence (P29274 whole entry S47A): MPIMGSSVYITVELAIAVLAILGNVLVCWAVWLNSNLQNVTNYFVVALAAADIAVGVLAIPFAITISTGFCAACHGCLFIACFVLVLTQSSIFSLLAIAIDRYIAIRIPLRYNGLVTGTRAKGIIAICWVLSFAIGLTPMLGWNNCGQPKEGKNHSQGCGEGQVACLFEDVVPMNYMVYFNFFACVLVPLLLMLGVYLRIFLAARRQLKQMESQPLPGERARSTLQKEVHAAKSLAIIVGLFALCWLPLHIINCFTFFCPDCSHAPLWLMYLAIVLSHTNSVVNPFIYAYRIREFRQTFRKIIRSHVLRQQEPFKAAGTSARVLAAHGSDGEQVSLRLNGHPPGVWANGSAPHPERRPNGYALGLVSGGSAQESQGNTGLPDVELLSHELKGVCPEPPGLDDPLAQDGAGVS

[2] = molecular target: T2, wild-type human adenosine A2A receptor with rho-1d4 tag (pITy4-A2AR-1d4) (human, UniProt P29274 1-412); experiment: as above; conditions: both partners purified
T2 construct: adenosine A2A receptor, human, wild type; the abstract calls it full length; also called WT A2AR; source: S. cerevisiae BJ5464 (pITy4, galactose induced), purified (Rho-1d4 resin, eluted with Rho-1d4 peptide) in DDM/CHAPS/CHS
T2 sequence (P29274 whole entry): as the sequence (P29274 whole entry S47A) above, with A47S counted along it

B1: Gαs protein (pET15b-Gαs, His6 tagged) (natural protein, UniProt P63092 1-394, looked up)
chain: MGCLGNSKTEDQRNEEKAQREANKKIEKQLQKDKQVYRATHRLLLLGAGESGKSTIVKQMRILHVNGFNGEGGEEDPQAARSNSDGEKATKVQDIKNNLKEAIETIVAAMSNLVPPVELANPENQFRVDYILSVMNVPDFDFPPEFYEHAKALWEDEGVRACYERSNEYQLIDCAQYFLDKIDVIKQADYVPSDQDLLRCRVLTSGIFETKFQVDKVNFHMFDVGGQRDERRKWIQCFNDVTAIIFVVASSSYNMVIREDNQTNRLQEALNLFKSIWNNRWLRTISVILFLNKQDLLAEKVLAGKSKIEDYFPEFARYTTPEDATPEPGEDPRVTRAKYFIRDEFLRISTASGDGRHYCYPHFTCAVDTENIRRVFNDCRDIIQRMHLRQYELL
notes: G protein alpha-s subunit; also called G protein; source: E. coli Rosetta (DE3), purified (Ni-NTA resin)
B1 gave a Kd [1] of 146 nM, a koff [1] of 0.00122 s⁻¹ and a kon [1] of 18700 ± 2900 M⁻¹ s⁻¹. It also gave a Kd [2] of 74 nM, a koff [2] of 0.00066 s⁻¹ and a kon [2] of 12700 ± 649 M⁻¹ s⁻¹.
